# Test results taken from US20060142171A1, “Novel alkaline protease” (priority 2003, published 2006).
# B1: Subtilisin Carlsberg: bacterial protease, type VIII; Sigma; one of the first commercial alkaline proteases (protein, UniProt P00780 106-379, looked up)
# Subtilisin Carlsberg: AQTVPYGIPLIKADKVQAQGFKGANVKVAVLDTGIQASHPDLNVVGGASFVAGEAYNTDGNGHGTHVAGTVAALDNTTGVLGVAPSVSLYAVKVLNSSGSGSYSGIVSGIEWATTNGMDVINMSLGGASGSTAMKQAVDNAYAKGVVVVAAAGNSGSSGNTNTIGYPAKYDSVIAVGAVDSNSNRASFSSVGAELEVMAPGAGVYSTYPTNTYATLNGTSMASPHVAGAAALILSKHPNLSASQVRNRLSSTATYLGSSFYYGKGLINVEAAAQ
# B2: AL protease (alkaline protease from Nesterenkonia sp. nov. strain AL, DSM 15380) (protein)
# chain: QNPADSPHIGKVFFSTNQGDFVCSANIVASANQSTVATAGHCLHDGNGGQFARNFVFAPAYDYGESEHGVWAAEELVTSAEWANRGDFEHDYAFAVLETKGGTTVQQQVGTASPIAFNQPRGQYYSAYGYPAAAPFNGQELHSCHGTATNDPMGSSTQGIPCNMTGGSSGGPWFLGQGTGGAQNSVNSYGYTFLPDVMFGPYFGSGAQQNYNYAST
# Tests used:
# [1] = Circular dichroism spectroscopy; format: physicochemical
# Method: The conformational stability of the AL protease was examined by circular dichroism (CD) spectroscopy and compared with that of Subtilisin Carlsberg (bacterial protease, type VIII; Sigma Chemical Co., St. Louis, USA). The CD spectra of the proteins were obtained on a Jasco spectropolarimeter model J-720, at 25° C. in the far UV range from 195 to 250 nm at a scan rate of 10 nm/min using a sample cell path length of 0.1 cm. The ellipticity values (θ) for every nm wavelength increase were obtained in mdeg directly from the instrument and were recorded online in a computer. An average of 6 scans was calculated and the corresponding no-enzyme spectra were subtracted for each sample.
# [2] = Differential scanning calorimetry; format: physicochemical
# Method: The influence of different parameters including pH, calcium ions, EDTA, and detergent on thermal stability of the AL protease was investigated by differential scanning calorimetry (DSC). Comparative studies were also performed with Subtilisin Carlsberg. Thermal scans of AL protease (0.3 mg protein/ml) and subtilisin (2.5 mg protein/ml in the presence of 1 mM phenyl-methanesulfonyl fluoride (PMSF); Sigma) were performed by increasing temperature from 25° C. to 95° C. at a scan rate of 1° C. per min on a VP-DSC (MicroCal, Northampton, Mass.). The thermograms were corrected by subtracting the base line, obtained from a blank scan of the no-enzyme solution, and normalized for protein concentration. The unfolding transition of the AL protease was fitted to a two-state model. The Tm (temperature at which heat capacity change is a maximum), the calorimetric (or true) enthalpy ΔHcal (peak area), and van't Hoff (or apparent) enthalpy AHVH (calculated from the shape of thermogram) were calculated using the Origin software provided by MicroCal.
# [3] = Autolytic degradation by SDS-PAGE; format: physicochemical; conditions: incubation at 50° C. up to 24 h; not shown
# Method: Autolytic degradation of the protease was investigated by SDS-PAGE. The AL protease and Subtilisin Carlsberg were individually incubated in 10 mM Tris-HCl buffer 8 for 24 h at 50° C. Electrophoresis of the enzyme samples taken at different time intervals was performed according to the method of Laemmli, on 12% polyacrylamide gel using a Mini Protean II equipment (Bio-Rad, Richmond, Calif.).
# [4] = target: T1, N-succinyl-Ala-Ala-Phe-7-amino-4-methyl coumarin
# T1 chain: AAF
# [5] = target: T2, N-succinyl-Leu-Leu-Val-Tyr-7-amino-4-methyl coumarin
# T2 chain: LLVY
# [6] = target: T3, N-succinyl-Ala-Ala-Pro-Phe-p-nitroanilide
# T3 chain: AAPF
# [7] = target: T4, N-succinyl-Leu-Tyr-7-amino-4-methyl coumarin
# T4 chain: LY
# [8] = target: T5, N-succinyl-Phe-Leu-Phe thiobenzyl ester
# T5 chain: FLF
# [9] = target: T6, N-succinyl-Ala-Ala-Pro-Leu-p-nitroanilide
# T6 chain: AAPL
# [10] = substrate: CCCC(=O)Oc1ccc([N+](=O)[O-])cc1; test: Assay with synthetic peptide, pNA, AMC, NNap and ester substrates (kinetic parameters); format: biochemical, Nesterenkonia sp. AL; conditions: other: substrate marked b (footnote not given), 50 mM Tris-HCl buffer, pH 9
# [11] = 0.1% (w/v) SDS vs untreated, pH 10.0
# [12] = untreated, 10 mM glycine-NaOH buffer, pH 10.0 (subtilisin with 1 mM PMSF)
# [13] = untreated, 10 mM glycine-NaOH buffer, pH 10.0 (subtilisin with 1 mM PMSF), listed as Subtilisin
molecule,measurement,setting,value
B1,Secondary structure in the presence of SDS,"[1]; 0.1-1% (w/v) SDS, data not shown",complete loss of secondary structure
same,Secondary structure after incubation,"[1]; 24 h at 50° C., 10 mM glycine-NaOH buffer, pH 10.0",substantial loss of structure
same,Tm on addition of Ca^2+,"[2]; 1 mM PMSF present, pH 10.0",remained unchanged
same,Lowering of Tm,"[2]; 10 mM EDTA, 1 mM PMSF present",10 °C
same,ΔHcal,"[2]; 10 mM EDTA, 1 mM PMSF present",636 kJ/mol
same,Decrease in Tm,[2]; [11],13 °C
same,Decrease in ΔHcal,[2]; [11],247 kJ/mol
same,Further lowering in Tm,"[2]; 0.2% SDS vs 0.1% SDS, pH 10.0",3 °C
same,Further lowering in ΔHcal,"[2]; 0.2% SDS vs 0.1% SDS, pH 10.0",172 kJ/mol
same,Tm,"[2]; +0.1% SDS, pH 10.0",54.5 ± 0.02 °C
same,ΔHcal,"[2]; +0.1% SDS, pH 10.0",602 ± 2.1 kJ/mol
same,Tm,"[2]; +0.2% SDS, pH 10.0",51.1 ± 0.01 °C
same,ΔHcal,"[2]; +0.2% SDS, pH 10.0",431 ± 0.84 kJ/mol
same,Tm,[2]; [12],67.3 °C
same,ΔHcal,[2]; [12],849 kJ/mol
same,Tm,[2]; [13],67.3 ± 0.02 °C
same,ΔHcal,[2]; [13],849 ± 3.8 kJ/mol
same,Degradation on gel electrophoresis,[3],considerable degradation
B2,specific activity toward synthetic substrate,[4],only able of hydrolysing those substrates at a very low rate when high substrate concentration (10 mM) was used; between 0.002 to 0.008 U/mg
same,Km,[5],15 µM
same,kcat,[5],51.7 s⁻¹
same,kcat/Km,[5],3.45e+06 M⁻¹ s⁻¹
same,Km,[6],2970 µM
same,kcat,[6],4390 s⁻¹
same,kcat/Km,[6],1.48e+06 M⁻¹ s⁻¹
same,specific activity toward synthetic substrate,[7],only able of hydrolysing those substrates at a very low rate when high substrate concentration (10 mM) was used; between 0.002 to 0.008 U/mg
same,specific activity toward synthetic substrate,[8],only able of hydrolysing those substrates at a very low rate when high substrate concentration (10 mM) was used; between 0.002 to 0.008 U/mg
same,Km,[9],9300 µM
same,kcat,[9],6650 s⁻¹
same,kcat/Km,[9],715000 M⁻¹ s⁻¹
same,Km,[10],1050 µM
same,kcat,[10],63.7 s⁻¹
same,kcat/Km,[10],60800 M⁻¹ s⁻¹
